For three molecules, EC50 of the cAMP response (BRET ratio change of the Epac-L sensor) of HEK293T cells transfected with He-pdfr-B, synthetic peptide and EC50 of the cAMP response (BRET ratio change of the Epac-L sensor) of HEK293T cells transfected with He-pdfr-A, synthetic peptide results are on record in article PMC11879619.

Where no end group is shown, it is not given here.

For the first assay, the target named is He-PDFR-B, short splice variant of the pigment-dispersing factor receptor of Hypsibius exemplaris (Hypsibius exemplaris).
For NSEILNTIIGLPNKLRQR-NH2 [He-PDF-2, pigment-dispersing factor 2 of Hypsibius exemplaris (synthetic mature peptide)], the EC50 of the cAMP response (BRET ratio change of the Epac-L sensor) of HEK293T cells transfected with He-pdfr-B, synthetic peptide at 10^-11 to 10^-5 M came to 11 nM.

Take NSEILNTLIGLPNKLKQR-NH2 [He-PDF-3, pigment-dispersing factor 3 of Hypsibius exemplaris (synthetic mature peptide)]: the EC50 of the cAMP response (BRET ratio change of the Epac-L sensor) of HEK293T cells transfected with He-pdfr-B, synthetic peptide at 10^-11 to 10^-5 M was found to be 1.6 nM.

As for NAEVLNSLIGLPRLLKDK-NH2 [He-PDF-1, pigment-dispersing factor 1 of Hypsibius exemplaris (synthetic mature peptide)], the EC50 of the cAMP response (BRET ratio change of the Epac-L sensor) of HEK293T cells transfected with He-pdfr-B, synthetic peptide at 10^-11 to 10^-5 M amounted to 21 nM.

The target of another assay is He-PDFR-A, long splice variant of the pigment-dispersing factor receptor of Hypsibius exemplaris (Hypsibius exemplaris).
As to NSEILNTIIGLPNKLRQR-NH2 [He-PDF-2, pigment-dispersing factor 2 of Hypsibius exemplaris (synthetic mature peptide)], the EC50 of the cAMP response (BRET ratio change of the Epac-L sensor) of HEK293T cells transfected with He-pdfr-A, synthetic peptide at 10^-11 to 10^-5 M came out at 34 nM.

Turning to NSEILNTLIGLPNKLKQR-NH2 [He-PDF-3, pigment-dispersing factor 3 of Hypsibius exemplaris (synthetic mature peptide)], the EC50 of the cAMP response (BRET ratio change of the Epac-L sensor) of HEK293T cells transfected with He-pdfr-A, synthetic peptide at 10^-11 to 10^-5 M came to 18 nM.

As for NAEVLNSLIGLPRLLKDK-NH2 [He-PDF-1, pigment-dispersing factor 1 of Hypsibius exemplaris (synthetic mature peptide)], the EC50 of the cAMP response (BRET ratio change of the Epac-L sensor) of HEK293T cells transfected with He-pdfr-A, synthetic peptide at 10^-11 to 10^-5 M worked out at 56 nM.
